Experimental data from the domain aggregation screens of Martell et al. (2025).

Assay: soluble fraction after stress (log2 fold change); higher = more stays soluble; pooled small domains, quantitative proteomics
Settings: stress: 75 degC
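Also: 20 min heating vs room temperature control held 20 min.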

Row | Sequence | soluble fraction (log2)
1 | HMEPLIRTLEEQIAEKIKNYRKGTRVYDAEHVDRWISQLPEEERMVVLTETNRLLEQNYVDQAKLME | -0.0452
2 | HMEPMLEIFDAKIDLADVLAVESGLVRLRGGAEVTSPRVDVDAGARLELDSGARLNVERLSY | 0.155
3 | HMEPMTDQQILEGFAEFKRQNPDLMNRPATQAIVNLTLPGGTPISFRSGAGAAALNQYLESIGMRAGP | 0.0601
4 | HMEPPAPAPDIPYPSRVTVRREVDGWPHYYGTWTRTPPVLGYEGIWLVGVSLDGKVQFVPVDDVTIA | -1.17
5 | HMEPREEFTFADLRANGLNGTAAAAGRRAALGAALGIGYGNAKQFLRRLNHYGVTRSEWEAALADLDE | -0.752
6 | HMEPSERYKALQSLLPDYAKRLKKKGVTRHQLFLEYRLTHPDGYARSRFGTYFQAYLALSHP | -2.32
7 | HMEPTLVVARDKDAKSPLVAKLMKELGVDAAPRVIVDDSVIGGAKLSHNHTEIDATYKTALINLYQAIT | 0.19
8 | HMEPVFSDPARQTLYQEVMELPAKYRVPLYLYYYEGYKVDEVGELLGLNASTVQTRLARARAKLKIQL | -0.489
9 | HMEQETVTVPDLVGKDVVAAQAELHEMGLSGKPDGTGTTVVSQFPVAGARVLKHTNVILYTED | 0.296
10 | HMEQFRENIVRIYMEIDDYENGAKFLEMGNNRDASFYELAGDFYKYFGENELANENYDLAISA | -0.629
11 | HMEQIPEEYKKIYSLITDIPININDIAKKSLLELREVSSKLTMLELDGKVVKLPGNMYIRGDL | -0.195
12 | HMEQKELAPLVPQEDGSVKLTNLAGYSMREVAAALEGGNLSLIPIGSGTSWKQDPAPGTVLQPGNTVTVYF | -0.297
13 | HMEQPLSLKLANNAFSRFWGNANPAEKDTQPNNSDIAKWVIEQSGGKITQTMADKIAQIIRPEWAA | 0.372
14 | HMEQSGDELKTWVDQAIAAYPEKVKEYQQGKKGLLALFIGEVMKRSKGTADPKKVNQLVTEALS | -0.164
15 | HMEQTMNDMLKLVDLLPQNQQDIVRMRFYENMSFKEIAESNQISINTALGRMRYAILNLRKYAAERNL | -2.59
16 | HMEQVLDEEIIKSAVQKVIKDNPSAVSDYKAGKKTAFQFLIGKAMAELQGKGHPGKISELLEKE | 0.474
17 | HMEQVQQIPIEELFPFKEHPFKVLDDEAMQRTVESVAQYGVLAPLIARPRPEGGYEIISGHRRQHAAELYR | -0.0469
18 | HMEQWVSIEVEPGIRLDVALTEATQKSRSFIQNLIAEQRVLVNGQPKKANYKVRPGDHVELNYPEPT | -0.29
19 | HMEREKTYLMPDLIGRKAERVVPRLQASGFKVEDIRHVYYPGLEKGVIVRQSPPGGYPIQKRNLINLEVS | -0.581
20 | HMERLKKYLDDVRTFLPGTNPKKVDEILREIESHVLERAEREHGEVNDNAVAMSIKEYGSPEEVAARYYEG | 0.809
21 | HMERLSNQVYAILKEMIADYRFNPGARINVEQIAKEVGASRTPVWEAVHRLVQEGLLENIPNRGVFML | -1.45
22 | HMERNAEDFAAKYQEIYQDMFRFALYTLKNRQEAEDVVSETVLDAWKGIEGLKNESAFSAWMFRILVNK | 0.126
23 | HMESADEESNALMYDGLLAMRGKRYEVALEFFDALVKHDPDFAEGWNKRATVLYLLGRYERSIADIKQVLA | 0.239
24 | HMESAEQTGEELAARVNVLQTVSQALARELGREAAVEELADKMKMTVDEVKDIMKMAMDAMSM | 0.294
25 | HMESAESRVDLIGMIGEAITDLRPAGTAQFGEERIDVVSESEWITEGSTVKVVSAEGYRHVVRVME | -0.358
26 | HMESENANVNRAMLTGIASMHAGQLETALNKFNEVIQLAPDFAEGWNKRATIFYLMKKFDRSVNDIAQTLK | 0.0648
27 | HMESFGVAIKRLREAQGWTRADFLRQLGKTGYYMHATTLKRIEEGEQIAKVHEAVIISRLFGVTVEEMG | -3.1
28 | HMESGFEAVREVARHGSFANAAKALGVSGPAVSRQVKSLEERLGLVFFHRTTRMVTLTEAGQQLVDTLD | 0.0837

Row | Sequence | soluble fraction (log2)
29 | HMESGNLIFTNAPIADVVNAIETRYGKKLQASNQTSDLQFTGIFKNTDEFSTVVKTIEIALGLQFEV | -1.67
30 | HMESIEAGTFELDNKTSIDISEDEANLLNKMFEELTETNSKDMYGVMVADEAGFNEILEFAKENL | 0.00321
31 | HMESNWLTYAKRIQSIADTGMTFAVDDFDKERYQELADISSKMLADLSNIPIGRIENLLGPLGQ | -1.11
32 | HMESPVNTLPEDQRAWYKALPPELSTKTAVEAGAGVGVSERTVKRLLSNQTFFINLQRGNYRKRH | -0.119
33 | HMESRMTYLQKTKLATENLDAKLIDHQQWVAEVLGEDYRGVYSDEYLRRAAKVFAIFVNNLDD | -2.53
34 | HMESRRVTLLLPYDKAGIADTLRREAAVLSLEYGEDGVTVEAVVKPELWGLVREYVQNDNPK | -0.135
35 | HMESVTETFLTNLINRYIADKAGYIISYPSEYRIEVLYHGGQVLDYENLRKSINTYIPAHIGYKLVTI | 0.176
36 | HMESYDSEIKEVLDLAGKGRWEEAQTKADALREMAPNNSLVERLHGWVLQAAHQRREQALENDIRE | 0.432
37 | HMESYTEEMLEKMSVSKLRTIARELQVDNMTREQIRFGKKTELIQNILEFTGREIENMQLYDK | -0.0481
38 | HMESYWVVLRPMAAGTQIGANDLGYRSVALGAAAKNYLAASTNPIGSITRRRLVAGELLQGSSLTDDARA | -0.653
39 | HMETADREILLREIREIINERVDYNKDITDDEMKELVMNTVFERSRQQYMSIQDKQEIIQAIFNSMR | 0.029
40 | HMETAESLLRRLIMLEDPAMQNAMYVLAVMLERGKQLVERAAKPHESGGILRVYEHKKSGDTFVVLDPR | -0.764
41 | HMETDGGDLTPRERDVLSLIGRGLRNAEAASALGLSEHTIAGHIKSVYSKLGISTRAEAALLASRLGL | -0.499
42 | HMETGGLAQEAERELALLQEQIAHHEALYRKGTPEISDGAFDELFDRYQELADSLGVPADERIDRA | 0.155
43 | HMETIHEMVNRLSSEGFIKNEDGIWYLRDRRGDGTKWLKNPFFESTGEKDAFALIDHLKVNDELLSKLRK | -0.621
44 | HMETINERVNSIIEREGHTVATFAKKIGVPWTTIKNIVSGRNAPSYDIMVKIINAVDWVDANYLVMG | -2.59
45 | HMETKIKFQIQTLDELNIRKVADWDAKAITTVKKGQILDVVDTVAAKNGSTPMYRLESGLYITASPKYVKK | -1.16
46 | HMETKPTELMLDVHKLRIGMFVYLDLGWMDHPFPLNRFKISTNAQIEQIKGLRLKQVKVMTALSDPASLL | -4.91
47 | HMETKVIVPKVTGMNSKSAINYLSARGLKYKAVPADSGKSFHVVDQYPKSGTKVSPHSTVYLYS | 0.114
48 | HMETLKEVPNLKGQQQEVAKQLLINAGLGVGKINIIEDSTIADGEVVTQSILPNTKVKKDTYVGFTVNKAP | 0.0288
49 | HMETLKLRDSGKEVQSLQELLQRQGLSAPMNGIFDEATKSSVIAFQKANGLDADGIVGYKSWETLFTAG | 0.0141
50 | HMETMSGTVKWFNTQKGYGFITGDDGAEYFAHQTQIKMDGFRTLDAGDIVEFDVRSEEKGLAAVNIVP | 0.781
51 | HMETPDLTQLNPILDEYRGQKGAVIPVLQKAQKIYGFLPPEVLRRIAAGMRVPLSKIYGVATFYSQFY | 0.134
52 | HMETQAGELQDAIRDAIAALPPRTREVFLMSRERNLRYGEIAEALGISVKAVEANMSRALRQLREKLSPFL | -1.26
53 | HMETVMYLRQIKRPQGIYLAIQESYYDSSKKQSRTRTIESIGYLDNLRKEYEDPIAFFSQKAAAMTSEKKK | -1.55
54 | HMETVQTGTVKVSNSLNVRSGAGTNYSVLGSLSNGAKVEIVGTSGSWYKIKYGSGYGYVSKDYVTVS | -0.0122
55 | HMETVSFNPDIAVIPDYRHVVILGETTKTIANKYDIPVDILKAANPGLGNNVTKGDRLRVPDKTKLQ | 0.00398
